Assay results taken from publication PMC7720491.

Experiments:
[1] = target: recombinant F. hepatica cathepsin L1 (FhCL1), activated mature enzyme (Fasciola hepatica)
[2] = target: recombinant F. hepatica cathepsin L3 (FhCL3), activated mature enzyme (Fasciola hepatica)
[3] = target: recombinant F. hepatica cathepsin L1 (FhCL1), activated mature enzyme (Fasciola hepatica); experiment: enzyme inhibition kinetics (Ki, Morrison equation)
[4] = target: recombinant F. hepatica cathepsin L2 (FhCL2), activated mature enzyme (Fasciola hepatica); experiment: enzyme inhibition kinetics (Ki, Morrison equation)
[5] = target: recombinant F. hepatica cathepsin L3 (FhCL3), activated mature enzyme (Fasciola hepatica); experiment: enzyme inhibition kinetics (Ki, Morrison equation)
[6] = target: human cathepsin L (HsCL) (human); experiment: enzyme inhibition kinetics (Ki, Morrison equation)
[7] = target: human cathepsin K (HsCK) (human) (UniProt P43235); experiment: enzyme inhibition kinetics (Ki, Morrison equation)
Chain of human cathepsin K (HsCK) (human) (P43235 115-329): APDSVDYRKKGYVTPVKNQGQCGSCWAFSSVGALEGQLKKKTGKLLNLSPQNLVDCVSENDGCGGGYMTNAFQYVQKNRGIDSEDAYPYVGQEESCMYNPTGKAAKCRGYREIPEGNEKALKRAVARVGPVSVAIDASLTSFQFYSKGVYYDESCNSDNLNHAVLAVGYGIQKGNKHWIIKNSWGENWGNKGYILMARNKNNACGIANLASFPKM

[8] = target: recombinant F. hepatica cathepsin L1 (FhCL1), activated mature enzyme (Fasciola hepatica); remark: listed apart in the source
[9] = target: recombinant F. hepatica cathepsin L2 (FhCL2), activated mature enzyme (Fasciola hepatica)
[10] = target: recombinant F. hepatica cathepsin L3 (FhCL3), activated mature enzyme (Fasciola hepatica); remark: listed apart in the source

Substance | percent reduction of peptidase activity by 500 nM 33-mer peptide, pH 7.0 [1] | percent reduction of peptidase activity by 500 nM 33-mer peptide, pH 7.0 [2] | Ki [3] | Ki [4] | Ki [5] | Ki [6] | Ki [7] | percent inhibition of recombinant peptidase activity by 10 nM propeptide, pH 7.0 [8] | percent inhibition of recombinant peptidase activity by 10 nM propeptide, pH 7.0 [9] | percent inhibition of recombinant peptidase activity by 10 nM propeptide, pH 7.0 [10]
33-mer synthetic peptide derived from the FhCL3 propeptide (p45 to p77) | 30% | 50% |  |  |  |  |  |  |  | 
ppFhCL3_Glu^68/Arg^68 (domain or fragment) |  |  | 0.3 nM | 0.02 nM | 0.002 nM | 6.04 nM | 1.4 nM | 95% | < 20% | < 20%
ppFhCL3_Leu^66/Gly^66 (domain or fragment) |  |  | 0.05 nM | > 10000 nM | 8 nM | > 10000 nM | > 10000 nM | 90% |  | 
ppFhCL3_Tyr^46Lys^47/Ala^46Ala^47 (domain or fragment) |  |  | 1.26 nM | > 10000 nM | > 10000 nM | > 10000 nM | > 10000 nM | 85% |  | 
recombinant FhCL3 propeptide (ppFhCL3), wild type (from UniProt A0A879R2T5 1-326) (domain or fragment) |  |  | 0.04 nM | 0.004 nM | < 0.002 nM | 26.6 nM | 2 nM | 98% | 97% | 100%
